The target in series [1] is T1, human WT APJR (apelin receptor), cryo-EM construct with a deletion of 50 residues from the C-terminus (human, UniProt P35414).
T1 construct: The N-terminal fusion is HA signal peptide, Flag tag, 10x His tag and BRIL, in pFastBac1; No cleavage of the fusion is mentioned; The protein is seen both as a monomer and as a homodimer; also called ProtA; ProtB; source: Trichoplusia ni (Hi5) insect cells, baculovirus; alone or co-expressed with Gi and/or JN241-9; purified (LMNG/CHS, Talon resin, SEC); not shown: His10, N-terminal, kept
Put plainly: cryo-EM structure; purified APJR (LMNG/CHS) incubated 1 h at 4 °C with 125 µg JN241(-Fc), SEC in 20 mM HEPES pH 7.5, 100 mM NaCl; no Gi. The conditions noted are these: both partners purified.

The target of series [2] is T1, human WT APJR (apelin receptor), …. In words: cryo-EM 2D classification; JN241-APJR complex with the Fc tag removed from the sdAb; data quality insufficient for a high-resolution structure. The conditions noted are these: both partners purified.
Series [3] deals with the molecule itself. Put plainly: cryo-EM structure; JN241-9-APJR complex, APJR and JN241-9 co-expressed in Hi5 cells (1:1 virus ratio), co-purified without added ligand; no Gi.

B1: JN241-Fc, antagonistic single-domain antibody (sdAb) JN241 with Fc tag (VHH)
VHH: QVQLVESGGGSVQSGGSLTLSCAASGSTYSSHCMGWFRQAPGKEREGVALMTRSRGTSYADSVKGRFTISQDNTKNILYLQMNSLKPEDTAMYYCAAVPRAGIESGAYCKWNMKDSGSWGQGTQVTVSS
notes: the model of the JN241-APJR complex deposited here (PDB 8XQJ) holds this chain; also called antagonistic antibody; sdAb antagonist; source: provided by Structure Therapeutics
Regarding B1, the binding result in series [1] is on record as “binds”.

B2: JN241 with the Fc tag removed (VHH)
VHH: QVQLVESGGGSVQSGGSLTLSCAASGSTYSSHCMGWFRQAPGKEREGVALMTRSRGTSYADSVKGRFTISQDNTKNILYLQMNSLKPEDTAMYYCAAVPRAGIESGAYCKWNMKDSGSWGQGTQVTVSS
notes: as the VHH of m4; PDB 8XQJ holds the JN241 chain; also called sdAb; source: Fc tag removed
For B2, the binding result in series [2] is “binds”.

B3: human WT APJR (apelin receptor), cryo-EM construct with a deletion of 50 residues from the C-terminus (receptor, UniProt P35414 1-330, looked up)
chain: MEEGGDFDNYYGADNQSECEYTDWKSSGALIPAIYMLVFLLGTTGNGLVLWTVFRSSREKRRSADIFIASLAVADLTFVVTLPLWATYTYRDYDWPFGTFFCKLSSYLIFVNMYASVFCLTGLSFDRYLAIVRPVANARLRLRVSGAVATAVLWVLAALLAMPVMVLRTTGDLENTTKVQCYMDYSMVATVSSEWAWEVGLGVSSTTVGFVVPFTIMLTCYFFIAQTIAGHFRKERIEGLRKRRRLLSIIVVLVVTFALCWMPYHLVKTLYMLGSLLHWPCDFDLFLMNIFPYCTCISYVNSCLNPFLYAFFDPRFRQACTSMLCCGQSR
notes: The N-terminal fusion is HA signal peptide, Flag tag, 10x His tag and BRIL, in pFastBac1; No cleavage of the fusion is mentioned; The protein is seen both as a monomer and as a homodimer; also called ProtA; ProtB; source: Trichoplusia ni (Hi5) insect cells, baculovirus; alone or co-expressed with Gi and/or JN241-9; purified (LMNG/CHS, Talon resin, SEC); not shown: His10, N-terminal, kept
Turning to B3, in series [3], the binding result is “binds”.

The values are drawn from paper PMC11697037, “Structural insights into the regulation of monomeric and dimeric apelin receptor” (Nature Communications, 2025).
